Assay results: the DeepSol protein solubility set

Assay: soluble on expression in E. coli; label from the status in PepcDB or PDB records

Soluble on expression in E. coli, not soluble:
MGSDKIHHHHHHMSTFHPHPPTQNRLLAALPPIELDDLAPHLELVHLLPGDVLCKAGKQLSYAYFPTSSVISIHCLLENGTLSELTSVGREGMLGVSLFMGGEDTQSSATVQSAGYGYRLNAAFLLQEFNEGGMLQRLLLRYSHALVTEAAQNVICSRYHTAQQRLCRWLMSTWDRLGSQELVLTQESIASILGIRRESVTAIARRLQEAGTICYRRGRIMVNDQAALQRESCECYDIIKKEFDGVFDDVRVCEKARQNSINAANAL, MGSDKIHHHHHHMSTLDIAEDNKIKNEEFKIWKKSIPSLYQHISSLKPIFGSGVDESPSTLRSIVFTNDSSCNKSKGVLSVPLLYSQGSEIFEVDCIVPLGLHYKKPESISEPLVQPDYTMESQKVEQTVLIPKWEFKGETIAKMIYVDNSEINVKVIALSTNGSLAWFREGVKSPVYTMMEPSTSLSSASSGNQNKPCVDFAISNDSKTLTVTKEKHLDNENATIKLIDNSGKIGEVLRTIPVPGIKNIQEIKFLNNQIFATCSDDGIIRFWGNEIGKKPLWILNDSLDGKTTCFAASPFVDTLFMTGTSGGALKVWDIRAVIALGDADAELNINQGHNKVNELFKVHHFYSEQVSKIEFSSISPMEVVTIGGLGNVYHWNFEPVFAIYNEIHEDFQGIISDELEAESMAFYHTEGCRREIGENNKVNTVAYHKYIEDLVATVDSDGLLTVYKPFTGKVLDGSREVGAAKS, MGSDKIHHHHHHMSVAEPNSHTQRNQPRPIRVGVIGVGNMGQHHTRVLSSMKDVELVGVSDINVERGLETASKYKVRFFEDYCDLLPHVEAVCIAVPTRLHYAVGINCLLAGIHVLIEKPIAASISEAESLVNAAAESQCILQVGHIERFNPAFRELSKVMKTEEVLALEAHRMSPYSDRANDVSVVLDLMIHDIDLLLELAASPVTKLTASGTRALDSGYLDYVTATLGFANGIVATLTASKVTHRKIRRIVAHCKNSFTEADFLKNEILIHRQTSASPVNDHRHYRQDGLIEKVYTTNIQPLSAELEHFVNCVHGGNQPSVGGEQALKALRLASLIEQMALEERVWNPLDWQSESRVQSLTQSV, MGSDKIHHHHHHMSVLCLDLGGTKLMLAQVEGKTLLDTWRYPVPADGNFEQLFDFLVTCIHSHLTPETYGISIGIPGMVDMQSGTLLEVLNIPALTATQLAQQLKNTFEMDVVVNNDANLFALGEAVLNSNQDMLGITLGTGVGAGVIFNGQLYSGKHCAAGEIGSLSYRDGIIEHYCSGQYFTTHHHMSGEHLYQKACEGDSQALQAFAHFGEHLAHMIAQTLLVYDPKDIVLGGSVSQSFPFFIEALKQKLQSLVYGPQLADLTISASQHHNAALIGAAQWFLQQQKSSDFN, MGSDKIHHHHHHMSVLYDTIGIDYANLRKPDLRIAAQIDAALGDAQSVLNVGAGAGSYEPAGRAVTALEPSAEMIAQRPEGTAPVVQGPAEDLPFADNSFDAAMAVLTIHHWSDKARGLAEMRRVARNRAVLLTYDPAFRGQWQTEYWPGLIGLDDGAMPPMAFFEEHLGPVDTQPVLVPHDCSDGFLYAYWRRPQAYLDPRIRKGSSGFWMIDGVEEGAQRLQADLASGAWAARHAALLERENADMGYRLVIADLV, MGSDKIHHHHHHMSVNGSQRVDLEVVANLIPPQSRVLDVGSGDGSLLELLQDTKQVDGRGLELSQRGVNECVARGLSVIQGDADKDLEFYPDKGFDFVVLSQTLQATRNPKLVLDELLRIGNRAIVSFPNFGHWRVRLSLFVKGRMPVTQDLPYSWYDTPNIHFCTIRDFVNLCEELGATVEKATALDAAGQKIGLSMPWWFWNFFGQQAVFLLKRN, MGSDKIHHHHHHMSVPTTMFRLTGRDYPPAKLSHASLIIIDAQKEYLSGPLKLSGMDEAVANIARLLDAARKSGRPIIHVRHLGTVGGRFDPQGPAGQFIPGLEPLEGEIVIEKRMPNAFKNTKLHETLQELGHLDLIVCGFMSHSSVSTTVRRAKDYGYRCTLVEDASATRDLAFKDGVIPAAQIHQCEMAVMADNFACVAPTASLI, MGSDKIHHHHHHMSVRCASLSAMELTQATVNDLLAQLGPGDSYMYLPSDLDPQDLTDLLDGRYGAARTLVLDGFTDPTVDESRGAALLVPFEDRAVKIRAWAYGDQWVGTGTARDAKGAERPVLVVAHREVPEPLAVAPDEDEDVDWMERLIRITGWTRPAQRPDVDWAEVESRLGTALPSDYKRMVETFGEGAFDGYLDLNQEPWTDLRRDGLLIWAGTEHEDLYCWRADGDDPDRWPVVVRSFDNKDVPFDCQAAKFVCRILIDPHHPFTMARYFDTHWFMNYRESG
